Source: paper doi:10.1101/2020.12.31.424729 (bioRxiv, 2020)

B1: DH1047 Fab (Fab, V domains shown)
VH: QVQLVQSGAEVKKPGASVQVSCQASANTFTNHYIHWVRQAPGQGLEWMGIIYPTGGNTIYAQGFQGRVTMTRDTSLNTIYLELSSLRSEDTAVYYCARDVRVDDSWSGYDLLSGGTYFDYWGQGTLVTVSS
VL: not shown
B2: DH1041 Fab (Fab, V domains shown)
VH: EVQLVESGGGLVQPGGSLRLSCAASGVTFSSYWMSWVRQAPGKGLEWVANIRQDGSEKYSVDSVKGRFTISRDNAKNSLYLQMNSLRAEDTAVYYCARARRADNSGYYGFHFDCWGQGTLVTVSS
VL: QSVLTQPPSVSGAPGQRVTISCTGSSSNIGAGYDVHWYQQLPGTAPKLLIYGNNNRPSGVPDRFSDSKSGTSASLAITRLQAEDEADYYCQSYDSSLSGWVFGGGTKLTVL

Target: SARS-CoV-2 Spike ectodomain trimer stabilized with 2 proline mutations (S-2P) (SARS-CoV-2, Wuhan-Hu-1, stabilised)
Experiment: cryo-EM structure

Binder	stoichiometry N
B1	3 Fabs per S-2P trimer
B2	3 Fabs per S-2P trimer
